The record followed here is article PMC4896748, “Ensemble cryo-EM uncovers inchworm-like translocation of a viral IRES through the ribosome” (eLife, 2016).

The target in the assay is T1, S. cerevisiae elongation factor eEF2 (C-terminally His6-tagged), bound with GDP and sordarin (S. cerevisiae, UniProt P32324 1-842, diphthamide at 699).
T1 construct: elongation factor 2 (eEF2), S. cerevisiae; residue numbers as in S. cerevisiae eEF2 (H108, H583, H694, Diph699); Complex assembled with eEF2•GTP and sordarin; also called eukaryotic elongation factor 2; translocase; source: yeast TKY675 cells, purified (Ni-NTA, SP Sepharose cation exchange, Superdex 200)
T1 sequence (P32324 whole entry): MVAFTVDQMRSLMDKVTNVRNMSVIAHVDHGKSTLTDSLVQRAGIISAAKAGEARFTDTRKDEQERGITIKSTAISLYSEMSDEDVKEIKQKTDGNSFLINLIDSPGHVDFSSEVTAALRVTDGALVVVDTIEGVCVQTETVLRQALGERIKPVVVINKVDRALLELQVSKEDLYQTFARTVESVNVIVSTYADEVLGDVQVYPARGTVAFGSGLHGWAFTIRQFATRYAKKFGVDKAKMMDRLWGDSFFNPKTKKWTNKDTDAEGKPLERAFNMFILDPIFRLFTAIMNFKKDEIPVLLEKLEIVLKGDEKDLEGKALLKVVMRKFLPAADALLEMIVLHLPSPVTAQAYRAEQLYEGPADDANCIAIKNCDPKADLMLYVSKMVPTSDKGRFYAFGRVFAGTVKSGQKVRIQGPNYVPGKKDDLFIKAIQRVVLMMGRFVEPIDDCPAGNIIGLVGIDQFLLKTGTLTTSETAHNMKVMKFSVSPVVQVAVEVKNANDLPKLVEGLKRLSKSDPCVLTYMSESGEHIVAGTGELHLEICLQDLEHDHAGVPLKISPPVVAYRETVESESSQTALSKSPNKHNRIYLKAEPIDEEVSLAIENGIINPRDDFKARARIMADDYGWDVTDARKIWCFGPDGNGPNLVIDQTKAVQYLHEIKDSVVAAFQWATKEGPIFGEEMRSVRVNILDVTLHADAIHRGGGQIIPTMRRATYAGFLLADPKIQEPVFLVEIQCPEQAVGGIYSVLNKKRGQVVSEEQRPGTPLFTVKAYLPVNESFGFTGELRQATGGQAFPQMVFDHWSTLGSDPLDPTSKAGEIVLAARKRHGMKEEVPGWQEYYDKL
Kind of assay: cryo-EM structure; 80S•TSV IRES•eEF2•GDP•sordarin complex, five structures (I-V) from one specimen; assembled from 40S (0.8 uM), 60S (0.8 uM), TSV IRES RNA (8 uM), eEF2 (5 uM), sordarin (800 uM), GTP (1 mM); 30°C; 45 mM HEPES·KOH pH 7.5, 10 mM MgCl2, 100 mM KCl, 2.5 mM spermine, 2 mM β-mercaptoethanol. The conditions noted are these: both partners purified.

B1: ribosomal protein P0 of the S. cerevisiae 60S subunit (P stalk) (natural protein, UniProt P05317 1-312, looked up)
chain: MGGIREKKAEYFAKLREYLEEYKSLFVVGVDNVSSQQMHEVRKELRGRAVVLMGKNTMVRRAIRGFLSDLPDFEKLLPFVKGNVGFVFTNEPLTEIKNVIVSNRVAAPARAGAVAPEDIWVRAVNTGMEPGKTSFFQALGVPTKIARGTIEIVSDVKVVDAGNKVGQSEASLLNLLNISPFTFGLTVVQVYDNGQVFPSSILDITDEELVSHFVSAVSTIASISLAIGYPTLPSVGHTLINNYKDLLAVAIAASYHYPEIEDLVDRIENPEKYAAAAPAATSAASGDAAPAEEAAAEEEEESDDDMGFGLFD
notes: 60S acidic ribosomal protein P0 (uL10), S. cerevisiae; part of the P stalk of the 60S subunit; Stood in the assay as a subunit of the 60S ribosomal subunit within the 80S ribosome, not as an isolated protein; also called eukaryote-specific protein P0; source: endogenous, in 60S subunits from 80S ribosomes purified from S. cerevisiae strain W303
Take B1: the binding result is “binds”.
